Drawing on patent US20150368652A1, this text covers total voltage-gated potassium current retained for one substance.

The target of this assay is Kcna2 protein (Kv1.2), endogenous in rat dorsal root ganglion neurons (rat) (UniProt P63142). Description: cell-based or functional assay.
Chain of UniProt P63142 (P63142 whole entry): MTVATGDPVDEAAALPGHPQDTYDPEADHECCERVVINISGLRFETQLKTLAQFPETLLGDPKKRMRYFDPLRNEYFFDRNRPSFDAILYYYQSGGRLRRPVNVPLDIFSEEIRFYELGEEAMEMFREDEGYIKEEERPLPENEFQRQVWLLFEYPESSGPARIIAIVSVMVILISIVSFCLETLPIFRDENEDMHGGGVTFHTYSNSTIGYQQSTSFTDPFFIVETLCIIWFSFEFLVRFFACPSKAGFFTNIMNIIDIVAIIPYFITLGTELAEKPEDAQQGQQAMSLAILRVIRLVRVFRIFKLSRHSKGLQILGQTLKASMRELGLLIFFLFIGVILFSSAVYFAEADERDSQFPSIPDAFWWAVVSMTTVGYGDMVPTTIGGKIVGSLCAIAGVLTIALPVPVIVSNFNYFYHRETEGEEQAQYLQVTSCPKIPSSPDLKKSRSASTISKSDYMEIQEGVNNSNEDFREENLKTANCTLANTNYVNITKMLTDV

Consider “maurotoxin (from UniProt P80719 1-34) (peptide)”, for which the total voltage-gated potassium current retained at +50 mV after 100 nM MTX, large DRG neurons, Kcna2 antisense-treated group (Kcna2 downregulated) is 92.3 % of current; the total voltage-gated potassium current retained at +50 mV after 100 nM MTX, large DRG neurons, control group (whole-cell voltage clamp) was 81.7 % of current; the total voltage-gated potassium current retained at +50 mV after 100 nM MTX, medium DRG neurons, Kcna2 antisense-treated group (Kcna2 downregulated) is 94.9 % of current; the total voltage-gated potassium current retained at +50 mV after 100 nM MTX, medium DRG neurons, control group (whole-cell voltage clamp) was 85.1 % of current.
